# From patent US20240116985A1 (published 2024)
# Starred links: 1 amine or outer side, 2 acyl side, 3 side chain; linkers in the order of their positions; H or OH if unused. Positions of bridges follow the written chain, without caps; N, C: chain ends. Non-standard residues stand in square brackets, D forms with d. Primed or numbered codes have the meaning given here. B5(15) = 2-amino-2-(pent-4-en-1-yl)hept-6-enoic acid (2,2-bis(4-pentenyl)glycine), stitching residue bearing two staples, C=CCCCC(CCCC=C)(N[*:1])C(=O)[*:2]; PyrS2″ = (S)-3-amino-1-((pent-4-en-1-yloxy)carbonyl)pyrrolidine-3-carboxylic acid (stapling residue), C=CCCCOC(=O)N1CC[C@@](N[*:1])(C(=O)[*:2])C1; B5(4) = 2,2-bis(4-pentenyl)glycine = 2-amino-2-(pent-4-en-1-yl)hept-6-enoic acid (stitching residue), C=CCCCC(CCCC=C)(N[*:1])C(=O)[*:2]; B5(5) = 2,2-bis(4-pentenyl)glycine, 2-amino-2-(pent-4-en-1-yl)hept-6-enoic acid (stitching residue), C=CCCCC(CCCC=C)(N[*:1])C(=O)[*:2]; PyrS2 = (S)-3-amino-1-((pent-4-en-1-yloxy)carbonyl)pyrrolidine-3-carboxylic acid, C=CCCCOC(=O)N1CC[C@@](N[*:1])(C(=O)[*:2])C1; B5(27) = 2-amino-2-(pent-4-en-1-yl)hept-6-enoic acid (two alkene side-chain arms), C=CCCCC(CCCC=C)(N[*:1])C(=O)[*:2]; F2PipAbu = (S)-2-amino-4-(4,4-difluoropiperidin-1-yl)butanoic acid, O=C([C@H](CCN1CCC(F)(F)CC1)N[*:1])[*:2]; Phe(3-COOH) = N[C@@H](Cc1cccc(C(=O)O)c1)C(=O)O; Bta = N[C@@H](Cc1csc2ccccc12)C(=O)O; αAllylPro = C=CC[C@@]1(C(=O)O)CCCN1; tBuAla = CC(C)(C)C[C@H](N)C(=O)O; 3Thi = N[C@@H](Cc1ccsc1)C(=O)O; Cha = N[C@@H](CC1CCCCC1)C(=O)O; S8 = C=CCCCCCC[C@](C)(N)C(=O)O; PyrS2(4) = not defined here; hSer = N[C@@H](CCO)C(=O)O; Nle = CCCC[C@H](N)C(=O)O
# T1: B-cat-Halo (beta-catenin HaloTag NanoBRET construct expressed in HEK293 cells) (UniProt P35222 1-781, HaloTag NanoBRET 618 Ligand bound to the HaloTag)
# T1 sequence (looked up): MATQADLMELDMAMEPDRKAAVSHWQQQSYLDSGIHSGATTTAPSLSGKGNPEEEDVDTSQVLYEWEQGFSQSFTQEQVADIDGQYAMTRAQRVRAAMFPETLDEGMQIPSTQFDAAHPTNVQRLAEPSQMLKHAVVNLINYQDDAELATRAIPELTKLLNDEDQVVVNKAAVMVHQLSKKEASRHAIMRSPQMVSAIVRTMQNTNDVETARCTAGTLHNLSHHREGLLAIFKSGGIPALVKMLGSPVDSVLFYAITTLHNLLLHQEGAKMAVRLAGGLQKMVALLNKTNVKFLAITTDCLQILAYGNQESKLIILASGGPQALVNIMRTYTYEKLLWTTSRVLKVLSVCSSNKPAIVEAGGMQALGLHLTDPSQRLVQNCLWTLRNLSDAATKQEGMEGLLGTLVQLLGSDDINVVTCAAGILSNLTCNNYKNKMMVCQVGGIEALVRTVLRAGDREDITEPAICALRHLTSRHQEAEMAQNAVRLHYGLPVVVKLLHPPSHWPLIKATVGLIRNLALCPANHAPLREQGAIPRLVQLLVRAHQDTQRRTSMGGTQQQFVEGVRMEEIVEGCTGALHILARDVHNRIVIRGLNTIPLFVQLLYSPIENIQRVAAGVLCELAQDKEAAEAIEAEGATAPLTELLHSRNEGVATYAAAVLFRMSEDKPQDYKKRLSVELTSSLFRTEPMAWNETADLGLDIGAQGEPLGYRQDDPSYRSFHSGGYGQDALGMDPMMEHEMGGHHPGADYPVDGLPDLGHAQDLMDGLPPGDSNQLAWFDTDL
# T2: B-cat-Halo (beta-catenin HaloTag NanoBRET construct expressed in HEK293 cells) (UniProt P35222 1-781)
# T2 sequence (looked up): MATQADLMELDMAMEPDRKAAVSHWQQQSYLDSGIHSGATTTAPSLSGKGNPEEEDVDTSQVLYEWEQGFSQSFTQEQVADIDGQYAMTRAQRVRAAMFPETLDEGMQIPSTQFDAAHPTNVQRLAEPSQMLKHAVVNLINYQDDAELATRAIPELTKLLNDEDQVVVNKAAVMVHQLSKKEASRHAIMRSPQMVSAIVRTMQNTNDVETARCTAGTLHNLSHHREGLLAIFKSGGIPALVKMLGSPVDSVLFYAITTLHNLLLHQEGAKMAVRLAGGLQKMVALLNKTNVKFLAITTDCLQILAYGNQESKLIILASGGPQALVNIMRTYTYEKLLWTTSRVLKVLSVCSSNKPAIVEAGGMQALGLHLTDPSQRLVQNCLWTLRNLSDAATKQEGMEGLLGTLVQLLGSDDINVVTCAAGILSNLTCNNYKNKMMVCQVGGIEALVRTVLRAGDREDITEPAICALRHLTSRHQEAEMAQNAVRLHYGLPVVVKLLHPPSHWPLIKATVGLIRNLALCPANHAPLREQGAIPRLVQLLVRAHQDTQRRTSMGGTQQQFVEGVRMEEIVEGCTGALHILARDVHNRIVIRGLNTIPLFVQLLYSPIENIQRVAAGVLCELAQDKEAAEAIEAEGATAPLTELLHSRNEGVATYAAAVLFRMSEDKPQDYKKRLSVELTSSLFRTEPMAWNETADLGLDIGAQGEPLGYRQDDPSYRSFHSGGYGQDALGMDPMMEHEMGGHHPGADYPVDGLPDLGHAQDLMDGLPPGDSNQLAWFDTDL
# T3: Bcat-Halo (UniProt P35222 1-781)
# T3 sequence (looked up): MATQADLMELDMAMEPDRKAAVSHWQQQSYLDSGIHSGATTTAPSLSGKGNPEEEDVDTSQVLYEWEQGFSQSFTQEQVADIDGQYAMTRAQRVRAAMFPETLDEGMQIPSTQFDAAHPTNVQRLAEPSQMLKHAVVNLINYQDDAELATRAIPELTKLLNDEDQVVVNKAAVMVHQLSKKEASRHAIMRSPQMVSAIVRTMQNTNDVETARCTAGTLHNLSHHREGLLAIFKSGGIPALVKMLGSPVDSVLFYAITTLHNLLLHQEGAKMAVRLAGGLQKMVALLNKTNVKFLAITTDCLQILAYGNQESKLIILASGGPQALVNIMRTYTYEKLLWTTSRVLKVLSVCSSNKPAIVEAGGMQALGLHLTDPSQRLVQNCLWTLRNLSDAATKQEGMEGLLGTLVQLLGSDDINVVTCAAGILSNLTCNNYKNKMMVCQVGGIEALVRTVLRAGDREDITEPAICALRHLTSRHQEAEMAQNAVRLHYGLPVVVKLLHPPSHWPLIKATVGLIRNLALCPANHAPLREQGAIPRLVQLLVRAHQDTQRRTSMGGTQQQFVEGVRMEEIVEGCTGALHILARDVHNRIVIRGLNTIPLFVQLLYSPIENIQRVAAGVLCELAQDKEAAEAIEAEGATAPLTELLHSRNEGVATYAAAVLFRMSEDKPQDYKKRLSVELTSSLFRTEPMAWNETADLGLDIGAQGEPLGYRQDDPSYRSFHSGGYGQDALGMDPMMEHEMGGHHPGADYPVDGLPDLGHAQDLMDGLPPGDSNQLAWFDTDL
# Experiments:
# Assay in all cases: cell-based or functional assay
# [1] = target: T1, B-cat-Halo (beta-catenin HaloTag …)
# [2] = target: T2, B-cat-Halo (beta-catenin HaloTag …)
# [3] = target: T3, Bcat-Halo
NanoBRET Abs IC50 [1],Binder,also measured
> 20 µM,"Ac-[αAllylPro]DS[B5(5)]DDAAFL[PyrS2″][3Thi][Bta]Q-NH2 (staple 1-4, 4-11) [I-1513: Ac-PL3-Asp-Ser-B5-Asp-Asp-Ala-Ala-Phe-Leu-PyrS2-3Thi-BztA-Gln-NH2]",
24.5 µM,"Ac-[αAllylPro]DF[B5(5)]DDAAFL[PyrS2(4)][3Thi][Bta]Q-NH2 (staple 1-4, 4-11; not fully specified; printed as I-1509: Ac-PL3-Asp-Phe-B5-Asp-Asp-Ala-Ala-Phe-Leu-PyrS2-3Thi-BztA-Gln-NH2; reading uncertain) [I-1509: Ac-PL3-Asp-Phe-B5-Asp-Asp-Ala-Ala-Phe-Leu-PyrS2-3Thi-BztA-Gln-NH2]",
5.8 µM,"Ac-[αAllylPro]D[Nle][B5(5)]DEAAFQ[S8]F[Bta]Q-NH2 (staple 1-4, 4-11) [I-1522: Ac-PL3-Asp-nLeu-B5-Asp-Glu-Ala-Ala-Phe-Gln-S8-Phe-BztA-Gln-NH2]",
,"Ac-[αAllylPro]DQ[B5(15)]DEAAF[hSer][S8]F[Bta]Q-NH2 (staple 1-4, 4-11; not fully specified; printed as Ac-PL3-Asp-Gln-B5-Asp-Glu-Ala-Ala-Phe-Hse-S8-Phe-BztA-Gln-NH2) [I-1542]",NanoBRET Abs IC50 [2]: 49.1 µM
,"Ac-[αAllylPro]DF[B5(15)]DEAAFQ[S8]F[Bta]Q-NH2 (staple 1-4, 4-11) [I-1549]",NanoBRET Abs IC50 [2]: 11.6 µM
,"Ac-[αAllylPro]D[hSer][B5(15)]DEAAF[hSer][S8]F[Bta]Q-NH2 (staple 1-4, 4-11; not fully specified) [I-1548]",NanoBRET Abs IC50 [2]: > 20 µM
6 µM,"Ac-[αAllylPro]D[Nle][B5(5)]DEAAFQ[S8]F[Bta]Q-NH2 (staple 1-4, 4-11; also: staple isomer, earlier eluting HPLC peak) [I-1521: Ac-PL3-Asp-nLeu-B5-Asp-Glu-Ala-Ala-Phe-Gln-S8-Phe-BztA-Gln-NH2]",
17.4 µM,"Ac-[αAllylPro]D[Cha][B5(5)]DDAAFL[PyrS2(4)][3Thi][Bta][hSer]-NH2 (staple 1-4, 4-11; not fully specified; printed as I-1520: Ac-PL3-Asp-Cha-B5-Asp-Asp-Ala-Ala-Phe-Leu-PyrS2-3Thi-BztA-Hse-NH2; reading uncertain) [I-1520: Ac-PL3-Asp-Cha-B5-Asp-Asp-Ala-Ala-Phe-Leu-PyrS2-3Thi-BztA-Hse-NH2]",
8.1 µM,"Ac-[αAllylPro]D[Nle][B5(5)]DEAAF[hSer][S8]F[Bta]Q-NH2 (staple 1-4, 4-11; also: staple isomer, earlier eluting HPLC peak) [I-1524: Ac-PL3-Asp-nLeu-B5-Asp-Glu-Ala-Ala-Phe-Hse-S8-Phe-BztA-Gln-NH2]",
,"Ac-[αAllylPro]D[tBuAla][B5(4)]DWAA[Phe(3-COOH)]N[PyrS2″][3Thi][Bta]Q-NH2 (staple 1-4, 4-11) [I-2127]",NanoBRET Abs IC50 [3]: 40.8 µM
> 20 µM,"Ac-[αAllylPro]DY[B5(5)]DDAAFL[PyrS2″][3Thi][Bta][hSer]-NH2 (staple 1-4, 4-11) [I-1512: Ac-PL3-Asp-Tyr-B5-Asp-Asp-Ala-Ala-Phe-Leu-PyrS2-3Thi-BztA-Hse-NH2]",
> 20 µM,"Ac-[αAllylPro]DY[B5(27)]DDAAFL[PyrS2][3Thi][Bta]Q-NH2 (staple 1-4, 4-11) [I-1511: Ac-PL3-Asp-Tyr-B5-Asp-Asp-Ala-Ala-Phe-Leu-PyrS2-3Thi-BztA-Gln-NH2]",
> 20 µM,"Ac-[αAllylPro]D[tBuAla][B5(27)]DDA[F2PipAbu]FL[PyrS2][3Thi][Bta]Q-NH2 (staple 1-4, 4-11) [I-1505: Ac-PL3-Asp-Npg-B5-Asp-Asp-Ala-F2PipAbu-Phe-Leu-PyrS2-3Thi-BztA-Gln-NH2]",
,"Ac-[αAllylPro]D[tBuAla][B5(4)]DYAA[Phe(3-COOH)][hSer][PyrS2″][3Thi][Bta]Q-NH2 (staple 1-4, 4-11; also: later eluting HPLC isomer composition) [I-2125]",NanoBRET Abs IC50 [3]: 41.2 µM
